Where a chain is given by its changes, count along the chain named.
Biological target: T1, CSP Protein (Plasmodium falciparum, UniProt Q7K740 19-374)
T1 construct: also called circumsporozoite protein; complete CSP protein
Assay: SPR, antibody on chip;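 further: antibodies immobilized on a Carterra chip, directly or via anti-human Fc capture, at two spots each, with CSP flowed over at 4-5 concentrations peaking at 0.5-8 µg/mL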
Procedure: For SPR, each antibody was either directly coupled to a Carterra Chip or coupled using a goat anti-human Fc antibody. The uncoupled antibodies were washed off and various concentration gradients of the targets were flowed over the antibodies, where the highest concentration of each target was in the range 0.5-8 μg/mL. Each antibody was immobilized in two different locations on the chip to allow for duplicate measurements. The affinity for each antibody-target combination was determined using 4-5 target concentrations in Mathematica software. If variation between the two duplicates was >3-fold, the antibody-target measurement was repeated.

T1 sequence (Q7K740 19-374 limits assumed): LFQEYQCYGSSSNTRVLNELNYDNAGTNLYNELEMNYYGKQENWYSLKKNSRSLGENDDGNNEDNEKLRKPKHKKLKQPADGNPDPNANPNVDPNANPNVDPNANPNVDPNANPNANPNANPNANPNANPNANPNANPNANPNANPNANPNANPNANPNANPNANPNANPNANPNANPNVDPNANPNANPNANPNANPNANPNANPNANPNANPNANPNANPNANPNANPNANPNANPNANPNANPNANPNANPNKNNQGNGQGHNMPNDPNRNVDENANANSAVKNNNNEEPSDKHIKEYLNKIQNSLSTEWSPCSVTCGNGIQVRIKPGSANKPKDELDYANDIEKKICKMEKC

B1: AB-007067 (antibody, V domains shown)
VH: QMQLVESGGGVVQPGRSLRLSCTASGFTFSTYAMHWVRQSPGQGLQWVAVISYHSTNKYYEDSVRGRFTISRDNSKNTLYLQMNSLRAEDTAVYYCARDGYSSSFFDFWGQGTLVTVSS
VL: DIQMTQSPSTLSASVGDRVAITCRASQSISRWLAWYQQQPGKAPKLLMSSASVLESGVPSRFSGSGSGTEFTLTISSLQPDDFATYYCQHYNSYFVTFGQGTKVEIK
**Q.** With B1 as the binder, how does the Kd read?
**A.** The Kd was 0.0877 nM.

B2: AB-007071 (antibody, V domains shown)
VH: B1 VH
VL: B1 VL with S50G, V53S
**Q.** For B2, which Kd is on record?
**A.** The Kd was 0.0683 nM.

B3: AB-007073 (antibody, V domains shown)
VH: B1 VH
VL: B1 VL with S50G, Y94H
**Q.** For B3, which Kd is on record?
**A.** Its Kd is 0.0816 nM.

B4: AB-007069 (antibody, V domains shown)
VH: B1 VH
VL: B1 VL with S50V
**Q.** With B4 as the binder, how does the Kd read?
**A.** Its Kd is 0.174 nM.

B5: AB-007068 (antibody, V domains shown)
VH: B1 VH
VL: B1 VL with S50L
**Q.** For B5, which Kd is on record?
**A.** The Kd was 0.152 nM.

B6: AB-007074 (antibody, V domains shown)
VH: B1 VH with T23A, S40A
VL: B1 VL with A20T, S50G, F95Y
**Q.** For B6, which Kd is on record?
**A.** The Kd was 0.0415 nM.

B7: AB-007072 (antibody, V domains shown)
VH: B1 VH
VL: B1 VL with S50G, V53N
**Q.** B7 was tested. Which Kd did it give?
**A.** Its Kd is 0.194 nM.

B8: AB-007070 (antibody, V domains shown)
VH: B1 VH
VL: B1 VL with S50A
**Q.** Which Kd does the source give for B8 here?
**A.** The Kd was 0.177 nM.
